± gives the standard deviation of the averaged measurements.
What follows are sequences tested on Saccharomyces cerevisiae (assay: protein stability index of tFT-peptide fusion (C-terminal peptide) (PSI (0-1 scale)); higher = more stable (slower turnover)). Details: genetic background: wild type; temperature: 30 C.
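Note: PSI is a weighted mean of sequencing reads over stability bins, variants kept only with over 10 reads, mCherry proximal and sfGFP distal, peptide attached via GGGS linker.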

| Sequence | protein stability index |
| --- | --- |
| SKKTSRSKVHTS | 0.685 ± 0.069 |
| SLALSSPLPPPP | 0.735 ± 0.042 |
| SLALVATWCGYR | 0.688 ± 0.052 |
| SLASWLCVFSWD | 0.673 ± 0.027 |
| SLCTFSFLRFGF | 0.738 ± 0.015 |
| SLCTSVPEPPFS | 0.687 ± 0.0072 |
| SLDLSQPMPWYH | 0.711 ± 0.051 |
| SLDQGSSSLFIM | 0.731 ± 0.082 |
| SLEFISIAFLDL | 0.685 ± 0.042 |
| SLEQRPLQRPPS | 0.6941 ± 0.0063 |
| SLFALPLPPPAQ | 0.695 ± 0.025 |
| SLFFPLPLSSLF | 0.736 ± 0.07 |
| SLFHTSLAYSFF | 0.7143 ± 0.0066 |
| SLFLSRRSLYRV | 0.738 ± 0.034 |
| SLFLVLSLAQLL | 0.579 ± 0.066 |
| SLFPAGWAGFSD | 0.73 ± 0.011 |
| SLFRGHLLPPRP | 0.688 ± 0.036 |
| SLIPLLPPRSLS | 0.594 ± 0.1 |
| SLKIHIKQIEKK | 0.766 ± 0.022 |
| SLLILMYHIAPF | 0.53 ± 0.03 |
| SLLLPPRPPCPP | 0.737 ± 0.024 |
| SLLLRVLCGRLS | 0.5104 ± 0.0037 |
| SLLPHAHAPSPL | 0.673 ± 0.014 |
| SLLPHSPLLPPP | 0.694 ± 0.0031 |
| SLLPQSAGRRPH | 0.666 ± 0.063 |
| SLLPRLTPHSPI | 0.75 ± 0.051 |

| Sequence | protein stability index |
| --- | --- |
| SLLSTPPPLASP | 0.669 ± 0.039 |
| SLPALPPLGLFS | 0.71 ± 0.017 |
| SLPCPISPPSFL | 0.697 ± 0.018 |
| SLPLHFISGFYV | 0.6586 ± 0.0043 |
| SLPLPPCLSPLQ | 0.723 ± 0.054 |
| SLPLPVFSFPCS | 0.653 ± 0.00069 |
| SLPLSSALFPPL | 0.72 ± 0.076 |
| SLPPALPLPLSH | 0.64 ± 0.06 |
| SLPPPPCLPPLT | 0.675 ± 0.044 |
| SLPPSFPPPFLF | 0.7355 ± 0.001 |
| SLRNGESTGLCF | 0.743 ± 0.098 |
| SLRPALSFLPLP | 0.716 ± 0.054 |
| SLSCDITRFVEY | 0.712 ± 0.19 |
| SLSHSPSPPPPT | 0.638 ± 0.0084 |
| SLSPWRLPIGGW | 0.708 ± 0.033 |
| SLSSAPPIPPTL | 0.697 ± 0.011 |
| SLSSRSVSLFKF | 0.806 ± 0.13 |
| SLSTAEAHGRRS | 0.72 ± 0.082 |
| SLSTLVFSFCVL | 0.517 ± 0.03 |
| SLSVRTIFTSRS | 0.71 ± 0.071 |
| SLTEAVHWDRIS | 0.67 ± 0.032 |
| SLTLAHPGVDLA | 0.709 ± 0.021 |
| SLTTPGMSQAYY | 0.703 ± 0.034 |
| SLVSTSRALFAQ | 0.659 ± 0.019 |
| SLVSWAGLLFWG | 0.727 ± 0.058 |
| SLWVLPGPVVLG | 0.621 ± 0.039 |

| Sequence | protein stability index |
| --- | --- |
| SLWVSLSCFRVV | 0.588 ± 0.028 |
| SMAPDIQLYTAS | 0.68901 ± 0.0006 |
| SMEVRGLKVRSC | 0.617 ± 0.015 |
| SMFFNSIDATRW | 0.721 ± 0.053 |
| SMGLYRDVVSGH | 0.665 ± 0.029 |
| SMKAYRTLKTRL | 0.636 ± 0.075 |
| SMWNFPRLAKTR | 0.685 ± 0.018 |
| SNACHTTFGDPI | 0.719 ± 0.0078 |
| SNAFWVRPFKIG | 0.667 ± 0.013 |
| SNCLKHAYTTRT | 0.6604 ± 0.0056 |
| SNTVSRAPFLLA | 0.681 ± 0.15 |
| SNWGLYGCRLYP | 0.759 ± 0.073 |
| SPAASPSRPPPI | 0.648 ± 0.025 |
| SPAGQRPQVPVS | 0.667 ± 0.075 |
| SPALPPPAPRLL | 0.719 ± 0.061 |
| SPALSPCLRTGY | 0.717 ± 0.062 |
| SPAPQLFLPPPV | 0.665 ± 0.052 |
| SPCLLTLPVPFL | 0.695 ± 0.017 |
| SPCLTRSALPSP | 0.687 ± 0.038 |
| SPCVPTPSRPAS | 0.685 ± 0.079 |
| SPDFSVITKSYL | 0.764 ± 0.032 |
| SPDGVEILPIRG | 0.684 ± 0.017 |
| SPEFIQAIQNPV | 0.724 ± 0.049 |
| SPEVIHVVFCDL | 0.697 ± 0.043 |
| SPFEASSPQVLT | 0.644 ± 0.0094 |
| SPFLSLPHPSFP | 0.6053 ± 0.0013 |

| Sequence | protein stability index |
| --- | --- |
| SPFRATPYPLLP | 0.6909 ± 0.0031 |
| SPGDVVVAVGGG | 0.6669 ± 0.0037 |
| SPGLYGPLSRGM | 0.684 ± 0.063 |
| SPGNLPMSSSLL | 0.686 ± 0.022 |
| SPGSVIVSASLL | 0.651 ± 0.039 |
| SPHPPPPPSPPP | 0.723 ± 0.059 |
| SPISFIHPHISG | 0.644 ± 0.017 |
| SPLDSPPLSSPP | 0.659 ± 0.028 |
| SPLEFPLLPSGV | 0.7 ± 0.064 |
| SPLLPPPPSPPL | 0.633 ± 0.081 |
| SPLPPPLCPPPL | 0.608 ± 0.034 |
| SPLPPPPRPPLP | 0.691 ± 0.039 |
| SPLPPSRSVHCA | 0.748 ± 0.072 |
| SPLPRLPPGPLP | 0.68 ± 0.03 |
| SPLSLSFLLLCL | 0.524 ± 0.028 |
| SPLSPAVPSTAL | 0.742 ± 0.056 |
| SPLSPPHRHNTT | 0.701 ± 0.017 |
| SPLTCKSLRAQR | 0.738 ± 0.022 |
| SPPGTCPTIRPS | 0.664 ± 0.014 |
| SPPLLLPNLCPC | 0.543 ± 0.023 |
| SPPLPPPPPFPL | 0.74 ± 0.053 |
| SPPLPPTPPVTT | 0.705 ± 0.19 |
| SPPLSFPTLQLF | 0.625 ± 0.15 |
| SPPLTLPPYPPP | 0.7149 ± 0.0031 |
| SPPPALPPPRPL | 0.749 ± 0.031 |
| SPPPASDHPNPL | 0.648 ± 0.063 |

| Sequence | protein stability index |
| --- | --- |
| SPPPPPAPHPCP | 0.686 ± 0.03 |
| SPPPPPLPPSPR | 0.713 ± 0.0078 |
| SPPPPPPRPPPP | 0.691 ± 0.015 |
| SPPPPPPRSPPL | 0.606 ± 0.0074 |
| SPPPPPVHPSSP | 0.722 ± 0.019 |
| SPPPPYPSLFPL | 0.677 ± 0.034 |
| SPPPTPLPPPPP | 0.628 ± 0.094 |
| SPPQTETGAQRP | 0.666 ± 0.051 |
| SPPRAGTPTSRP | 0.667 ± 0.097 |
| SPPRPPRPRYLF | 0.6947 ± 0.0062 |
| SPPSPGLDPVCP | 0.66 ± 0.089 |
| SPPSRLRPAILP | 0.668 ± 0.032 |
| SPPTCPNQLGPP | 0.7 ± 0.074 |
| SPPVPPLPAPAT | 0.539 ± 0.012 |
| SPPYPPPPVAST | 0.707 ± 0.013 |
| SPQFLLPRALSP | 0.695 ± 0.0042 |
| SPRFSPPAILHN | 0.71 ± 0.0091 |
| SPRKTAVIGGTT | 0.688 ± 0.034 |
| SPRLPAPPPPPQ | 0.702 ± 0.075 |
| SPRLPPSPPPDL | 0.628 ± 0.023 |
| SPRLRSRQVALS | 0.556 ± 0.17 |
| SPRLSAPPPPPP | 0.6766 ± 0.0046 |
| SPSLPSLNRCSL | 0.769 ± 0.016 |
| SPSPLPLSPSPL | 0.749 ± 0.086 |
| SPSPPSFRPSLH | 0.712 ± 0.12 |
| SPSPPSNPLPSP | 0.701 ± 0.024 |

| Sequence | protein stability index |
| --- | --- |
| SPSPSSLPPPLR | 0.726 ± 0.052 |
| SPSRPQPPPLSA | 0.738 ± 0.061 |
| SPSSPPSKCLSL | 0.688 ± 0.039 |
| SPSSSPSPFPVP | 0.731 ± 0.063 |
| SPSVRSPFSLPP | 0.7383 ± 0.0052 |
| SPTPHTLRLLPT | 0.662 ± 0.011 |
| SPTPTSLTPPDF | 0.733 ± 0.049 |
| SPVGCYAIIARM | 0.628 ± 0.042 |
| SPVHPSQHLWPP | 0.615 ± 0.021 |
| SPVRSQPALLVV | 0.565 ± 0.0096 |
| SPWFRSAASTPT | 0.786 ± 0.082 |
| SQLAGPPLPPPT | 0.751 ± 0.021 |
| SRAPHPPPPTLP | 0.711 ± 0.021 |
| SRARADTSRRRA | 0.7061 ± 0.0059 |
| SRCFGGRCQVIE | 0.67 ± 0.02 |
| SRFPPYALAHRP | 0.716 ± 0.2 |
| SRGGKMRPGGGG | 0.711 ± 0.012 |
| SRGVSIQQSIKI | 0.726 ± 0.037 |
| SRHGFLVNMCTL | 0.683 ± 0.028 |
| SRHGRTTKDFLQ | 0.682 ± 0.014 |
| SRISSGKFTGAV | 0.601 ± 0.041 |
| SRKKSKQYRQEK | 0.716 ± 0.039 |
| SRLGFPFTGGGR | 0.6597 ± 0.0062 |
| SRLPPHSPVHAS | 0.787 ± 0.042 |
| SRLRFSIAPSIF | 0.685 ± 0.022 |
| SRLRVVRCVSWV | 0.549 ± 0.1 |

| Sequence | protein stability index |
| --- | --- |
| SRMRADRYWRNY | 0.622 ± 0.019 |
| SRNFSIQILRER | 0.659 ± 0.019 |
| SRPPLLPTPPPS | 0.701 ± 0.047 |
| SRPPTFPPFFPS | 0.702 ± 0.015 |
| SRPRPPPTPALP | 0.679 ± 0.0056 |
| SRPRPSPSPFIA | 0.708 ± 0.045 |
| SRPSSFRLRFLH | 0.393 ± 0.18 |
| SRRGVVGLRVGI | 0.674 ± 0.033 |
| SRRSTIRCSTSC | 0.717 ± 0.036 |
| SRSAPPPSPGMT | 0.746 ± 0.052 |
| SRSGVKKDIRKL | 0.657 ± 0.059 |
| SRSRPLCGVSGV | 0.687 ± 0.052 |
| SRTLPHRTAPHC | 0.758 ± 0.054 |
| SRVERRRTSREG | 0.672 ± 0.083 |
| SRVVHSHRSFRP | 0.6843 ± 0.0047 |
| SRWDSDRGGERR | 0.805 ± 0.027 |
| SRWTLRTSMDLG | 0.616 ± 0.013 |
| SSASDVYQVINS | 0.676 ± 0.009 |
| SSASSLTIYTRG | 0.728 ± 0.024 |
| SSCWRAWAVNGL | 0.677 ± 0.063 |
| SSESPPLLPRPL | 0.754 ± 0.032 |
| SSFGPSFLTLFF | 0.70403 ± 0.00044 |
| SSFGSALRPRGV | 0.677 ± 0.029 |
| SSFPPPPAAPPP | 0.667 ± 0.041 |
| SSGASTSIVSTL | 0.678 ± 0.015 |
| SSKVFCRVAKRE | 0.724 ± 0.026 |

| Sequence | protein stability index |
| --- | --- |
| SSLLLLFYPPLP | 0.712 ± 0.016 |
| SSLPALRSPCHP | 0.738 ± 0.06 |
| SSLPPLRPFSPS | 0.726 ± 0.075 |
| SSLPPPPRSPPH | 0.715 ± 0.029 |
| SSLPRPSHSLSL | 0.617 ± 0.068 |
| SSLRPPPPLPPP | 0.682 ± 0.012 |
| SSLSPPPPLPPW | 0.706 ± 0.075 |
| SSNSRPTGSGGS | 0.694 ± 0.1 |
| SSPLPPPHASHP | 0.7104 ± 0.0043 |
| SSPLPPSLPSSR | 0.671 ± 0.025 |
| SSPLWDGLPRLT | 0.736 ± 0.028 |
| SSPPPAFPRASP | 0.633 ± 0.015 |
| SSPPPPVPPPPS | 0.725 ± 0.082 |
| SSPPSPPPPTPS | 0.702 ± 0.031 |
| SSPSFVVFPFVS | 0.685 ± 0.017 |
| SSPSPALLFPAR | 0.715 ± 0.036 |
| SSPSSLPAPPSA | 0.666 ± 0.039 |
| SSRLLRGGTGFL | 0.722 ± 0.029 |
| SSRPPLPPPRIH | 0.618 ± 0.017 |
| SSRRVGRWGGLG | 0.618 ± 0.11 |

— the supplement of paper PMC10724198
